# Experimental data: patent US20230048633A1
# Target: recombinant HLA-E-His protein (human) (UniProt P13747)
# Test: ELISA: the chimeric protein itself was coated in a 1:3 titration (the x axis is its coating concentration), HLA-E-His (Novus NBP2-47435PEP) was added, detected with Anti-6x-His-HRP (Abcam Ab1187)
row,EC50 (read off the curve) [µg/mL],Substance
1,6,hSLAMF6-Fc-NKG2A chimeric protein (from UniProt Q96DU3 22-226; P26715 94-233) (Fc fusion)
2,5,hTGFBR2-Fc-NKG2A chimeric protein (Fc fusion)
